Results published in US20210145976A1.
Numbering of substitutions follows the chain as printed.

B1: SEQ ID NO 61 (designed binder)
chain: MLPAPKNLVVSRVTEDSARLSWRVESRTFDSFLIQYQESEKVGEAIVLTVPGSERSYDLTGLKPGTEYTVSIYGVVWDTRDNPISNPLSAIFTT
B2: SEQ ID NO 287 (designed binder)
chain: MLPAPKNLVVSRVTEDSARLSWTAPDAAFDSFTIEYHESGPVGEAIVLTVPGSERSYDLTGLKPGTEYMVWIFGVKGGFVSRPLSAIFTT
B3: SEQ ID NO 289 (designed binder)
chain: MLPAPKNLVVSRVTEDSARLSWTAPDAAFDSFAIPYYEDTNDGEAIVLTVPGSERSYDLTGLKPGTEYWVSIQGVKGGTVSGPLSAIFTT
B4: SEQ ID NO 303 (designed binder)
chain: B3 chain with A33F, P35A, Y37F, D39F, T40A, D42P, W69K, S71V, V80P, G82E
B5: SEQ ID NO 301 (designed binder)
chain: MLPAPKNLVVSRVTEDSARLSWTAPDAAFDSFEIEYDEPYRGGEAIVLTVPGSERSYDLTSLKPGTEYPVSIGGVKGGITSDPLSAIFTT
B6: SEQ ID NO 300 (designed binder)
chain: MLPAPKNLVVSRVTEDSARLSWTAPDAAFDSFFIGYLEPQPPGEAIVLTVPGSERSYDLTGLKPGTEYNVTIHGVKGGTPSMPLSAIFTT
B7: SEQ ID NO 290 (designed binder)
chain: MLPAPKNLVVSRVTEDSARLSWTAPDAAFDSFFYLEQAWGGEAIVLTVPGSERSYDLTGLKPGTEYWVEITGVKGGYASSPLSAIFTT
B8: SEQ ID NO 292 (designed binder)
chain: MLPAPKNLVVSRVTEDSARLSWTAPDAAFDSFDIAYWELTPSGEAIELLVPGSERSYDLTGLKPGTEYRVDIIGVKGGFISEPLGATFTT
B9: SEQ ID NO 291 (designed binder)
chain: MLPAPKNLVVSRVTEDSARLSWTAPDAAFDSFHIEYEEPETEGEAIYLHVPGSERSYDLTGLKPGTEYKVLIRGVKGGSYSIPLQAPFTT
B10: SEQ ID NO 81 (designed binder)
chain: MLPAPKNLVVSRVTEDSARLSWTAPDAAFDSFVIEYREGAWYGEAIVLTVPGSERSYDLTGLKPGTEYAVYIPGVKGGPRSFPLSAIFTT
B11: SEQ ID NO 286 (designed binder)
chain: MLPAPKNLVVSRVTEDSARLSWTAPDAAFDSFNIYYPEFPVRGEAIVLTVPGSERSYDLTGLKPGTEYVVSIWGVKGGTQSWPLSAIFTT
B12: SEQ ID NO 302 (designed binder)
chain: B11 chain with N33D, F39Y, P40Y, V41D, V69T, S71Y, W73D, T79G, Q80G, W82G
B13: SEQ ID NO 34 (designed binder)
chain: MLPAPKNLVVSRVTEDSARLSWTAPDAAFDSFAITYIEWWDVGEAIGLKVPGSERSYDLTGLKPGTEYRVHIQGVKGGNNSYPLDALFTT
B14: SEQ ID NO 307 (designed binder)
chain: MLPAPKNLVVSRVTEDSARLSWTAPDAAFDSFPITYSEPAHYGEAIVLTVPGSERSYDLTGLKPGTEYHVGIMGVKGGVFSSPLSAIFTT
B15: SEQ ID NO 297 (designed binder)
chain: MLPAPKNLVVSRVTEDSARLSWTAPDAAFDSFLIPYAETSPSGEAITLFVPGSERSYDLTGLKPGTEYNVVIQGVKGGRPSNPLVAASTT
B16: SEQ ID NO 294 (designed binder)
chain: MLPAPKNLVVSRVTEDSARLSWTAPDAAFDSFSIIYSEWNVTGEAIVLTVPGSERSYDLTGLKPGTEYDVWIEGVKGGGMSKPLSAISTT
B17: SEQ ID NO 308 (designed binder)
chain: MLPAPKNLVVSEVTEDSARLSWQGVARAFDSFLITYREQIFAGEVIVLTVPGSERSYDLTGLKPGTEYPVWIQGVKGGSPSAPLSAISTT
B18: SEQ ID NO 281 (designed binder)
chain: MLPAPKNLVVSRVTEDSARLSWTAPDAAFDSFYIDYDEIHDWGEAIVLTVPGSERSYDLTGLKPGTEYAVQIGGVKGGSFSWTLSAIFTT
B19: SEQ ID NO 55 (designed binder)
chain: MLPAPKNLVVSRVTEDSARLSWTAPDAAFDSFIIEYWEFVGYGEAIVLTVPGSERSYDLTGLKPGTEYWVAIYGVKGGDLSKPLSAIFTT
B20: SEQ ID NO 299 (designed binder)
chain: B19 chain with I33L, F39S, A71G, D79Y, L80Y, K82R
B21: SEQ ID NO 60 (designed binder)
chain: B19 chain with I33T, E35W, W37A, F39A, V40I, Y42H, A71D, Y73W, D79Q, L80Q
B22: SEQ ID NO 56 (designed binder)
chain: B19 chain with I33V, W37F, F39A, V40L, G41E, Y42G, W69F, A71G, D79P
B23: SEQ ID NO 306 (designed binder)
chain: B19 chain with I33Y, W37F, F39T, V40Q, W69Y, D79Y, K82R
B24: SEQ ID NO 282 (designed binder)
chain: MLPAPKNLVVSRVTEDSARLSWTAPDAAFDSFAIVYHEPRPDGEAIVLTVPGSERSYDLTGLKPGTEYEVVILGVKGGVHSYPLSAIFTT
B25: SEQ ID NO 298 (designed binder)
chain: B24 chain with A33P, V35A, H37A, E69S, V71L, L73H, V79L, H80L, Y82S, F88S
B26: SEQ ID NO 283 (designed binder)
chain: B24 chain with A33P, V35A, H37A, E69S, V71L, L73H, V79L, H80L, Y82S
B27: SEQ ID NO 295 (designed binder)
chain: B6 chain with Q40I, P42S, N69P, T71V, H73Q, T79H, M82Q
B28: SEQ ID NO 305 (designed binder)
chain: MLPAPKNLVVSRVTEDSARLSWTAPDAAFDSFEIDYDEPFVYGEAIVLTVPGSERSYDLTGLKPGTEYRVFIFGVKGGNGSWPLSAIFTT
B29: SEQ ID NO 285 (designed binder)
chain: MLPAPKNLVVSRVTEDSARLSWTAPDAAFDSFLIPYAETSPSGEAIVLTVPGSERSYDLTGLKPGTEYSVLIHGVKGGDYSSPLSAIFTT
B30: SEQ ID NO 288 (designed binder)
chain: B29 chain with F88S
B31: SEQ ID NO 57 (designed binder)
chain: MLPAPKNLVVSRVTEDSARLSWTAPDAAFDSFSIKYLEWWQDGEAIVLTVPGSERSYDLTGLKPGTEYYVHIAGVKGGYRSYPLSAIFTT
B32: SEQ ID NO 309 (designed binder)
chain: B31 chain with S33I, K35D, W39L, W40D, D42E, Y69A, H71Y, A73F, R80P, Y82T
B33: SEQ ID NO 82 (designed binder)
chain: MLPAPKNLVVSRVTEDSARLSWTAPDAAFDSFAIAYVEWWKLGEAIVLTVPGSERSYDLTGLKPGTEYVVPIPGVKGGGHSSPLSAIFTT
B34: SEQ ID NO 280 (designed binder)
chain: B5 chain with S11R, R12X
modifications: X: residue not identified in the source; also: C-terminal poly-His tag, letters not given here

molecular target: human serum albumin (human) (UniProt P02768); experiment: screening ELISA
Sequence (P02768 25-609 limits assumed): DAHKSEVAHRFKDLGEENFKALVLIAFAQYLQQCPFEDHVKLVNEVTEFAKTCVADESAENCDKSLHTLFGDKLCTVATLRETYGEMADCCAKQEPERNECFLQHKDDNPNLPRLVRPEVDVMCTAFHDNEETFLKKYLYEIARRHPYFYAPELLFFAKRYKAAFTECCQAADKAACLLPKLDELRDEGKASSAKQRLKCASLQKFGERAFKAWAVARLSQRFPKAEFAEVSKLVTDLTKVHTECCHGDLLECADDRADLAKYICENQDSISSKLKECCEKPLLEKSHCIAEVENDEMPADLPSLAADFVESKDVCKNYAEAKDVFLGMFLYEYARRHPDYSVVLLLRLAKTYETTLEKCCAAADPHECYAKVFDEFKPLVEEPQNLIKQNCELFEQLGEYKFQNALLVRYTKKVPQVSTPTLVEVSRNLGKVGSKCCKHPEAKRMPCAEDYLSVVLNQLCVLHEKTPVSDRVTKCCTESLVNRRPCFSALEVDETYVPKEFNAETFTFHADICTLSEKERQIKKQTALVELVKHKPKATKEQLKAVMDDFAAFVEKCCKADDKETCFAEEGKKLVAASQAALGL

| Binder | HSA |
| --- | --- |
| B1 | 10600 |
| B2 | 5500 |
| B3 | 2150 |
| B4 | 2650 |
| B5 | 12000 |
| B6 | 4050 |
| B7 | 11800 |
| B8 | 8850 |
| B9 | 2150 |
| B10 | 28600 |
| B11 | 10800 |
| B12 | 21200 |
| B13 | 25900 |
| B14 | 4350 |
| B15 | 52600 |
| B16 | 8250 |
| B17 | 12300 |

| Binder | HSA |
| --- | --- |
| B18 | 22400 |
| B19 | 7760 |
| B20 | 2200 |
| B21 | 6480 |
| B22 | 7520 |
| B23 | 2250 |
| B24 | 18600 |
| B25 | 34000 |
| B26 | 6250 |
| B27 | 3800 |
| B28 | 25000 |
| B29 | 2200 |
| B30 | 40800 |
| B31 | 16900 |
| B32 | 2850 |
| B33 | 18900 |

molecular target: T1, recombinant biotinylated CD71 extracellular domain (Sino Biologics) with an N-terminal 6His tag (human), P02786; experiment: screening ELISA
T1 sequence (P02786 other isoform, or with tags, fused parts or gaps): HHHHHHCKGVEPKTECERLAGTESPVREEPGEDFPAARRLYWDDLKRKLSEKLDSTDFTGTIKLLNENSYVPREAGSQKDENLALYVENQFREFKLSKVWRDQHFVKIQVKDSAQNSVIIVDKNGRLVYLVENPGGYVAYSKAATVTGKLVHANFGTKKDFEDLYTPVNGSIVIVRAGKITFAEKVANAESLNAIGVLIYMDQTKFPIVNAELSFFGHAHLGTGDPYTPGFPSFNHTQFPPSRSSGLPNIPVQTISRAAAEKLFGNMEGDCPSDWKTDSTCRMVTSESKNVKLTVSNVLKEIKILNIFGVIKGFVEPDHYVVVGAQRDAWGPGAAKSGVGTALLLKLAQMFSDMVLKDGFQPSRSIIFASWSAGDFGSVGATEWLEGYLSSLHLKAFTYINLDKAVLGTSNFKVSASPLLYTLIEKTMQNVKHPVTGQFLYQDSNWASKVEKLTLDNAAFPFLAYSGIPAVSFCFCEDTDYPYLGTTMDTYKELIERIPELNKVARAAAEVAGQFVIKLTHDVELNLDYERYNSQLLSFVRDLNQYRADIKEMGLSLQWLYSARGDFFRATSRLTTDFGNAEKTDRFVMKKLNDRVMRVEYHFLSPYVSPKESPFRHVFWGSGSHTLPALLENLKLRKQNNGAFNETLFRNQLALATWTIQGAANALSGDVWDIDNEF

| Binder | hCD71 |
| --- | --- |
| B34 | 446000 |

molecular target: T1, recombinant biotinylated CD71 …; experiment: screening ELISA, ratio

| Binder | hCD71:HSA |
| --- | --- |
| B34 | 21 |
